This is an account of results in US7407939 (CUREGENICS, dated 2008).

Where no end group is shown, it is not given here. Side-chain parts run from the residue outwards. [ ]: non-standard residue; d: D form. The star is where a group is joined. SO2‑IQ = 5-aminoethylsulfoneamide isoquinoline, O=S(=O)(NCCN*)c1cccc2cnccc12; S‑IQ = 5-mercaptoaminopropyl isoquinoline; hLeu = CC(C)CC[C@H](N)C(=O)O; GltNH2 = not defined here; Nle = CCCC[C@H](N)C(=O)O; Orn = NCCC[C@H](N)C(=O)O; bGaba = not defined here; Dab = NCC[C@H](N)C(=O)O; Nva = CCC[C@H](N)C(=O)O; Abu = CC[C@H](N)C(=O)O; Dap = NC[C@H](N)C(=O)O; Ph2 = not defined here; GlyNH2 = aminoglycine; Ava = NCCCCC(=O)O; βAla = NCCC(=O)O Bounds are passed on as bounds.

The first test deals with protein kinase A, catalytic subunit. The test is described as follows: cell-based or functional assay.
Consider RPR[Nva][GlyNH2]A[hLeu] [60006-5A], for which the “IC50 µM PKA” value is 139 µM. On the same count and under the same terms, the figure for RPRTS[GlyNH2]F [60005-5] is 7.5 µM; for RPRTS[Abu][hLeu] [TY 60002-73] it is 228 µM.

A further test has the same target. Nature of the test: cell-based or functional assay. The source holds these as a separate data set.
Take RPRTS[Dap][hLeu] [TY 60002-96]: the “Activity PKA” value was above 40 µM. RPRVS[Abu]F [TY 60002-61]: the “Activity PKA” value is above 40 µM. On the same count and under the same terms, with RPRTSA[hLeu] [TY 60002-50] the figure was above 40 µM; with RPRTS[Abu][hLeu] [TY 60002-73], above 40 µM.

For the next test the target is unchanged. The test is described as follows: cell-based or functional assay. The source holds these as a separate data set.
RPR[Orn]E([bGaba-SO2‑IQ])SF (reading uncertain) [PTR 6088]: the “PKA IC50” value was 1 µM. On the same count and under the same terms, the figure for RPRTE([βAla-SO2‑IQ])SF [PTR 6082] is 0.2 µM; for RPRTD(SO2‑IQ)SF [PTR 6130] it is 0.053 µM. Same read-out and setting: the figure for RPR[Nle]E([βAla-SO2‑IQ])S[Nle] [PTR 6096] is 0.2 µM; for RPRTE([Ava-SO2‑IQ])SF [PTR 6090] it is 0.6 µM; for RPR[Nle]E([βAla-SO2‑IQ])SF [PTR 6086] it is 0.5 µM. The same measure, in the same setting: the figure for RPRTE(S‑IQ)SF [PTR 6104] is 0.1 µM; for RPR[Nle]E(SO2‑IQ)SF [PTR 6128] it is 0.1 µM.

Take RPR[Orn]E(SO2‑IQ)SF [PTR 6132]: the “PKA IC50” value is 0.012 µM.

RPR[Nle]E([βAla-SO2‑IQ])[Dab]F [PTR 6140]: the “PKA IC50” value was determined as 0.195 µM.

For the molecule RPRTE(SO2‑IQ)SF [PTR 6016], the “PKA IC50” value came to 0.1 µM. Same read-out and setting: the figure for RPR[Nva]E([βAla-SO2‑IQ])A[hLeu] [PTR 6152] is 5 µM; for RPRTE([βAla-S‑IQ])SF [PTR 6102] it is 0.1 µM.

For the next test the target is unchanged. Nature of the test: cell-based or functional assay. This is another data set of the same source.
Regarding RPR[Nva][GlyNH2][Dap][Ph2] (reading uncertain) [60006-11B], the “% Inhibition PKA” value is 20%. Still for that read-out and setting: with RPR[Nva][GlyNH2][GltNH2][hLeu] (reading uncertain) [60006-16A] the figure was 21%; with RPR[Nva][GlyNH2]A[hLeu] [60006-5A], 10%; with RPRTS[GlyNH2]F [60005-5], 40%. On the same count and under the same terms, the figure for RPR[Nva][GlyNH2][Abu][hLeu] [60006-7B] is 24%; for RPRTSA[hLeu] [TY 60002-50] it is 2%. Still for that read-out and setting: with RPRTS[Abu][hLeu] [TY 60002-73] the figure was 8%.

A further test has the same target. The test is described as follows: cell-based or functional assay. The source holds these as a separate data set.
In the case of RPRTE(S‑IQ)SF [PTR 6104], the “IC50 PKA” value came out at 100 nM. The same measure, in the same setting: the figure for RPR[Orn]E(SO2‑IQ)SF [PTR 6132] is 12 nM.

For RPRTE([βAla-S‑IQ])SF [PTR 6102], the “IC50 PKA” value was 100 nM.
